In US20220135655A1:
pKd: −log10 of the molar value.

Experiments:
Test in all cases: SPR
Conditions in all cases: scFv
[1] = target: H5VN04 (influenza A virus H5VN04 (H5N1))
[2] = target: H5 (influenza A virus H5VN04 (H5N1))
[3] = target: H5 (influenza A virus H5VN04 (H5N1)); remark: listed apart in the source
[4] = target: H5 (influenza A virus H5VN04 (H5N1)); remark: listed apart in the source

CR6261 wt
pKd [1]: 9.47

F10
pKd [2]: 6.57
pKd [3]: 8.92
pKd [4]: 10.00

F10 wt
pKd [1]: 10.00
